Data published in patent US20220402985A1.
Where a chain is given by its changes, count along the chain named. In names and notes the source's numbering stands. Several values for one entry are separate records, joined by “and”; a condition that tells them apart may be missing. Equal values may be shown once.

B1: huNRG1(S177-Q237)(NRGE1P)::GG::huFcSEFL2 (Pb) (Fc fusion)
chain: SHLVKCAESHKSFCVNGGECFMIEGPSNPSRYLCKCPNEFTGDRCQDFFMASFYKAEELYQGGDKTHTCPPCPAPELLGGPSVFLFPPKPKDTLMISRTPEVTCVVVDVSHEDPEVKFNWYVDGVEVHNAKTKPCEEQYGSTYRCVSVLTVLHQDWLNGKEYKCKVSNKALPAPIEKTISKAKGQPREPQVYTLPPSREEMTKNQVSLTCLVKGFYPSDIAVEWESNGQPENNYKTTPPVLDSDGSFFLYSKLTVDKSRWQQGNVFSCSVMHEALHNHYTQKSLSLSPGK
B2: huNRG1(S177-Q237)(3B8)::GG::huFcSEFL2 (Pb) (Fc fusion)
chain: B1 chain with A7G, S9R, H10D, I23V, G25R, P26S, N28I, M50L
B3: huNRG1(S177-Q237)(3D6)::GG::huFcSEFL2 (Pb) (Fc fusion)
chain: B1 chain with A7G, H10D, M22V, P26S, N28I, Y32F
B4: huNRG1(S177-Q237)(2E3)::GG::huFcSEFL2 (Pb) (Fc fusion)
chain: B1 chain with A7G, S9K, H10E, F21Y, P26L, N28I, Y32F, F48V
B5: huNRG1(S177-Q237)(2E4)::GG::huFcSEFL2 (Pb) (Fc fusion)
chain: B1 chain with A7G, H10D, I23V, E24K, G25R, D47K, F48V, M50L
B6: huNRG1(S177-Q237)(2G3)::GG::huFcSEFL2 (Pb) (Fc fusion)
chain: B1 chain with A7G, S9R, H10Q, F21Y, I23V, G25D, P26L, N28I, D47K, F48V
B7: huNRG1(S177-Q237)(3A7)::GG::huFcSEFL2 (Pb) (Fc fusion)
chain: B1 chain with S9K, H10E, M22V, P26S, N28I, Y32F, D47K, F48V, F49V
B8: huNRG1(S177-Q237)(1C11)::GG::huFcSEFL2 (Pb) (Fc fusion)
chain: B1 chain with A7G, S9K, H10E, S12T, F21Y, I23V, G25R, N28I, Y32F, D47K
B9: huNRG1(S177-Q237)(1B9)::GG::huFcSEFL2 (Pb) (Fc fusion)
chain: B1 chain with S9K, I23V, G25D, P26L, N28I, F48V
B10: huNRG1(S177-Q237)(2G4)::GG::huFcSEFL2 (Pb) (Fc fusion)
chain: B1 chain with S9N, H10E, S12T, M22V, I23V, P26L, N28I, F48V
B11: huNRG1(S177-Q237)(1A7)::GG::huFcSEFL2 (Pb) (Fc fusion)
chain: B1 chain with S9R, H10D, F21Y, M22V, G25H, P26L, Y32F, D47K, F48D
B12: huNRG1(S177-Q237)(1B4)::GG::huFcSEFL2 (Pb) (Fc fusion)
chain: B1 chain with A7G, S9R, H10D, S12T, G25D, P26S, D47K, F48D
B13: huNRG1(S177-Q237)(2F2)::GG::huFcSEFL2 (Pb) (Fc fusion)
chain: B1 chain with H10E, S12T, F21Y, G25H, Y32F, D47N, F48V
B14: huNRG1(S177-Q237)(1A12)::GG::huFcSEFL2 (Pb) (Fc fusion)
chain: B1 chain with S9K, F21Y, M22V, I23V, G25R, N28I, D47K
B15: huNRG1(S177-Q237)(1D10)::GG::huFcSEFL2 (Pb) (Fc fusion)
chain: B1 chain with S9R, H10D, S12T, F21Y, G25D, P26L, N28I, D47K, F48D
B16: huNRG1(S177-Q237)(1D3)::GG::huFcSEFL2 (Pb) (Fc fusion)
chain: B1 chain with A7G, S9N, H10D, M22V, G25D, N28I, D47N, F48D, M50L
B17: huNRG1(S177-F229)(NRGE1C) 6xHis (ligand)
chain: SHLVKCGEKHKSFCVNGGECFMIEGPSNPSRYLCKCPNEFTGDRCQEDFMASFGGGGEGGGGAGGGGHHHHHH
B18: huNRG1(S177-F229)(NRGE1C) (E47A_D48P_F49H_M50I) 6xHis (ligand)
chain: B17 chain with E47A, D48P, F49H, M50I
B19: huNRG1(S177-F229)(NRGE1C) (D48T_F49Q_M50I) 6xHis (ligand)
chain: B17 chain with D48T, F49Q, M50I
B20: huNRG1(S177-F229)(NRGE1C) (E47S_D48T_F49R_M50V) 6xHis (ligand)
chain: B17 chain with E47S, D48T, F49R, M50V
B21: huNRG1(S177-F229)(NRGE1D) (E47T_D48S_F49L_M50L) 6xHis (ligand)
chain: B17 chain with K9S, F21Y, I23V, P26S, N28I, E47T, D48S, F49L, M50L
B22: huNRG1(S177-F229)(NRGE1D) (E47S_D48S_F49E_M50L) 6xHis (ligand)
chain: B17 chain with K9S, F21Y, I23V, P26S, N28I, E47S, D48S, F49E, M50L
B23: huNRG1(S177-F229)(NRGE1D) 6xHis (ligand)
chain: B17 chain with K9S, F21Y, I23V, P26S, N28I
B24: huNRG1(S177-F229)(NRGE1C) (E47K_D48T_F49S_M50L) 6xHis (ligand)
chain: B17 chain with E47K, D48T, F49S, M50L
B25: huNRG1(S177-F229)(NRGE1D) (E47K_D48L_F49D_M50I) 6xHis (ligand)
chain: B17 chain with K9S, F21Y, I23V, P26S, N28I, E47K, D48L, F49D, M50I
B26: huNRG1(S177-F229)(NRGE1D) (E47V_D48T_F49R_M50L) 6xHis (ligand)
chain: B17 chain with K9S, F21Y, I23V, P26S, N28I, E47V, D48T, F49R, M50L
B27: huNRG1(S177-F229)(NRGE1C) (E47S_D48A_F49L_M50T) 6xHis (ligand)
chain: B17 chain with E47S, D48A, F49L, M50T
B28: huNRG1(S177-F229) 6xHis (ligand)
chain: SHLVKCAEKEKTFCVNGGECFMVKDLSNPSRYLCKCPNEFTGDRCQNYVMASFGGGGEGGGGAGGGGHHHHHH
B29: huNRG1(S177-Q237)(1A1)::GG::huFcSEFL2 (Pb) (Fc fusion)
chain: SHLVKCGESEKSFCVNGGECYVIEDSSIPSRFLCKCPNEFTGDRCQNVFLASFYKAEELYQGGDKTHTCPPCPAPELLGGPSVFLFPPKPKDTLMISRTPEVTCVVVDVSHEDPEVKFNWYVDGVEVHNAKTKPCEEQYGSTYRCVSVLTVLHQDWLNGKEYKCKVSNKALPAPIEKTISKAKGQPREPQVYTLPPSREEMTKNQVSLTCLVKGFYPSDIAVEWESNGQPENNYKTTPPVLDSDGSFFLYSKLTVDKSRWQQGNVFSCSVMHEALHNHYTQKSLSLSPGK
B30: huNRG1(S177-Q237)(2H7)::GG::huFcSEFL2 (Pb) (Fc fusion)
chain: B29 chain with S9K, I23V, S26L, N47K, F49V, L50M
B31: huNRG1(S177-F229)(NRGE1D)::1KmodT482V, M493L)::huFcSEFL2 (Pb) (Fc fusion)
chain: SHLVKCGESHKSFCVNGGECYMVEGSSIPSRYLCKCPNEFTGDRCQEDFMASFGSGSATGGSGSVASSGSGSATHLDKTHTCPPCPAPELLGGPSVFLFPPKPKDTLMISRTPEVTCVVVDVSHEDPEVKFNWYVDGVEVHNAKTKPCEEQYGSTYRCVSVLTVLHQDWLNGKEYKCKVSNKALPAPIEKTISKAKGQPREPQVYTLPPSREEMTKNQVSLTCLVKGFYPSDIAVEWESNGQPENNYKTTPPVLDSDGSFFLYSKLTVDKSRWQQGNVFSCSVMHEALHNHYTQKSLSLSPGK

Tests used:
[1] = biological target: ErbB3 on rat Schwann cells (rat) (UniProt Q62799); assay: cell-based or functional assay
[2] = biological target: ErbB4 on neonatal rat cardiomyocytes (rat) (UniProt Q62956); assay: cell-based or functional assay
Sequence of ErbB4 on neonatal rat cardiomyocytes (rat) (Q62956 26-1308): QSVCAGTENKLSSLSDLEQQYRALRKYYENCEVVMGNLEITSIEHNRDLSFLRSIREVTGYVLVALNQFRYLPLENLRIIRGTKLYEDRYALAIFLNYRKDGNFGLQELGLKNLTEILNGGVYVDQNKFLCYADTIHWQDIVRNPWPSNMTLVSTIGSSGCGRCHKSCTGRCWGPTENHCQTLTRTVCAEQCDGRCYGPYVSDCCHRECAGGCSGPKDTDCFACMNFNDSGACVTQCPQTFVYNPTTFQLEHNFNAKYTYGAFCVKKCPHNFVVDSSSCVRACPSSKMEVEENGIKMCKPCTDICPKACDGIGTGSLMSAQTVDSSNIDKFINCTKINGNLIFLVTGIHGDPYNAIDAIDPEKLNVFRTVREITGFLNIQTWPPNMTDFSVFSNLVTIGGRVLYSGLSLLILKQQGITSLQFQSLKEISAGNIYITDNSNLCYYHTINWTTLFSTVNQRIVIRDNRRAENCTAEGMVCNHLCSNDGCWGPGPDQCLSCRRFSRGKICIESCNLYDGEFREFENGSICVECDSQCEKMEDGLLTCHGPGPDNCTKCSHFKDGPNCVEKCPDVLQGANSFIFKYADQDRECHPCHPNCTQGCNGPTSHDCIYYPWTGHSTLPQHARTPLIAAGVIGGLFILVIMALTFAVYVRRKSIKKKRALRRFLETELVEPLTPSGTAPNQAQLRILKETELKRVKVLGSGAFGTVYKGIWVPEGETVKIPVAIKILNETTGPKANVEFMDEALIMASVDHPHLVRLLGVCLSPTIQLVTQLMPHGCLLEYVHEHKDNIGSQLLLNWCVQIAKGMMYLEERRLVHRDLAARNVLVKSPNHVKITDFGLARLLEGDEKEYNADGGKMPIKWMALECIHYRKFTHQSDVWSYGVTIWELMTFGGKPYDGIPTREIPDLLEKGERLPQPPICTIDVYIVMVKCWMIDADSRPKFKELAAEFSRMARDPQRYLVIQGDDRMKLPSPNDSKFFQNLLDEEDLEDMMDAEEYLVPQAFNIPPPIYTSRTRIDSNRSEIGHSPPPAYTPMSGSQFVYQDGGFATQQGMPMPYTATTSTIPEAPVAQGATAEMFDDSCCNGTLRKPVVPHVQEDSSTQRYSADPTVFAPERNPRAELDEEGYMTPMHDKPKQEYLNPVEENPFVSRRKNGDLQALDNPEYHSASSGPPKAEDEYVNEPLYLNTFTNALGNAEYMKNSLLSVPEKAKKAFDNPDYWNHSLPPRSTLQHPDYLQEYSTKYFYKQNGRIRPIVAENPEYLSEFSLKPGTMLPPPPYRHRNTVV

Sequence of ErbB3 on rat Schwann cells (rat) (Q62799 20-1339): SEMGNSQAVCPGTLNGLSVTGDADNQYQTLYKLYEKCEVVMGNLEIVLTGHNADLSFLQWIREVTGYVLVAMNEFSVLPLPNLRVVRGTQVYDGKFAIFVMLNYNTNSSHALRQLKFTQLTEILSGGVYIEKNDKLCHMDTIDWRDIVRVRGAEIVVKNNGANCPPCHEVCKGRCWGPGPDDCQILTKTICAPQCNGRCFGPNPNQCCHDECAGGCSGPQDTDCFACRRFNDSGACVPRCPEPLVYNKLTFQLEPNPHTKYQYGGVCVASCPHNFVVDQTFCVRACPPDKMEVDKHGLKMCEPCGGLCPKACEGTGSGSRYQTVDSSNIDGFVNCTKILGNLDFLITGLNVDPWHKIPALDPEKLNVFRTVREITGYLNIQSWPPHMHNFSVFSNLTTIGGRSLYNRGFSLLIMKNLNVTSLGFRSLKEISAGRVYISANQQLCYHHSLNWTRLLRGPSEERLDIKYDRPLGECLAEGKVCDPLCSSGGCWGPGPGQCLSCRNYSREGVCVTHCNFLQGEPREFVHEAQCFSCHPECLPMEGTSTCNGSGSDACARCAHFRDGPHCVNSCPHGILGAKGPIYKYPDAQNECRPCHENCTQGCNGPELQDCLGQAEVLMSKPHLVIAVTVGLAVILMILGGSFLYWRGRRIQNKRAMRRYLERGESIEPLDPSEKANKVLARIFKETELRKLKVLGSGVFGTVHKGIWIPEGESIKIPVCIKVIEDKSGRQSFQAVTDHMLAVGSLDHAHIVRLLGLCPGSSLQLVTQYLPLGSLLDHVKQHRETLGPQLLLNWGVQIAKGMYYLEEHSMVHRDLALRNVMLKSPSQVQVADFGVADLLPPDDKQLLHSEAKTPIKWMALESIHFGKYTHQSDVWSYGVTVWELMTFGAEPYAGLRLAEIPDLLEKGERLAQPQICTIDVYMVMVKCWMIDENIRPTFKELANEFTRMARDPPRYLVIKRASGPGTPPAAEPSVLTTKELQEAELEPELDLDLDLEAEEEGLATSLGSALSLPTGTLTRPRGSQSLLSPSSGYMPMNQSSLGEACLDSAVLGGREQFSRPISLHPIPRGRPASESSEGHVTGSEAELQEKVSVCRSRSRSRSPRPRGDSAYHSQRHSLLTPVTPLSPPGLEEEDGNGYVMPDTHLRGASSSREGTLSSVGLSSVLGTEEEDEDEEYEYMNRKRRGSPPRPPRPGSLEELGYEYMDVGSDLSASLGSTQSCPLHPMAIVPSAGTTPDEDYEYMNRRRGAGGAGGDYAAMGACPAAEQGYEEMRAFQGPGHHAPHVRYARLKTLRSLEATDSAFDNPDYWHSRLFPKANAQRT

| Binder | Schwann cells (SC) (ErbB3) Avg EC50 [1] | CM % Agonism AVG [2] [%] | Cardiomyocyte (CM) (ErbB4) Avg EC50 [2] | Selectivity SC/CM [2] |
| --- | --- | --- | --- | --- |
| B1 | 0.51 µM | 28 | 2220 pM | 229 |
| B2 | 3 µM | < 50 | 1400 pM | 2150 |
| B3 | > 10 µM | < 50 | 2600 pM | > 3800 |
| B4 | 1 µM | < 50 | 658 pM | 1520 |
| B5 | 0.0615 µM | – | 429 pM | 143 |
| B6 | 0.0608 µM | – | 208 pM | 292 |
| B7 | 0.0465 µM | < 50 | 366 pM | 127 |
| B8 | 0.087 µM | – | 1100 pM | 79 |
| B9 | 1 µM | < 50 | 1920 pM | 520 |
| B10 | 1 µM | < 50 | 2420 pM | 414 |
| B11 | 1 µM | – | 619 pM | 1620 |
| B12 | 10 µM | – | 996 pM | > 10000 |
| B13 | 0.202 µM | – | 244 pM | 826 |
| B14 | 0.0479 µM | – | 722 pM | 66 |
| B15 | > 3 µM | – | 741 pM | > 4000 |
| B16 | > 10 µM and 10 µM | 78 | 1620 pM and 772 pM | > 10000 |

| Binder | Schwann cells (SC) (ErbB3) Avg EC50 [1] | CM % Agonism AVG [2] [%] | Cardiomyocyte (CM) (ErbB4) Avg EC50 [2] | Selectivity SC/CM [2] |
| --- | --- | --- | --- | --- |
| B17 | 10 µM | 106 | 1440 pM | > 10000 |
| B18 | 10 µM | 96.5 | 1100 pM | > 10000 |
| B19 | 10 µM | 106 | 712 pM | > 10000 |
| B20 | 10 µM | 87.5 | 580 pM | > 10000 |
| B21 | 10 µM | 99.8 | 330 pM | > 10000 |
| B22 | 10 µM | 96 | 557 pM | > 10000 |
| B23 | 10 µM | 90.7 | 390 pM | > 10000 |
| B24 | 10 µM | 91.8 | 825 pM | > 10000 |
| B25 | 0.0172 µM | 91.7 | 311 pM | 55.4 |
| B26 | 10 µM | 98 | 224 pM | > 10000 |
| B27 | 10 µM | 85.9 | 695 pM | > 10000 |
| B28 | 0.00362 µM | 97.5 | 586 pM | 6.17 |
| B29 | 0.00911 µM | – | 133 pM | 69 |
| B30 | 0.11 µM | < 50 | 300 pM | 368 |
| B31 | > 10 µM | 83.4 | 340 pM | > 10000 |
